Reference: patent US20250215089A1 (HARBOUR BIOMED SHANGHAI, published 2025)
Substitutions are numbered along the chain they refer to. Numbers in names are those of the source. Where “and” joins values, the source holds several entries; their conditions need not be identical. Identical values can stand only once. Like-named read-outs stand apart in the source and are kept apart here.

Assays:
human CD40 [1] = molecular target: T1, human CD40 (human, UniProt P25942 21-277); assay: cell-based or functional assay
human CD40 [2] = molecular target: T1, human CD40; assay: FACS, Raji cells
Method: The cells were incubated at 4° C. for 1 hours in the dark. After the incubation, the cells were rinsed twice by adding pre-chilled PBS at 100 μL/well, and centrifuged at 500 g at 4° C. for 5 minutes, and the supernatant was discarded. Then, a fluorescent secondary antibody (goat anti-human IgG (H+L) secondary antibody, Alexa Fluor® 488 conjugate, Invitrogen, #A11013, 1:1000 dilution) was added at 100 μL/well, and the cells were incubated at 4° C. for 30 minutes in the dark. The cells were washed twice with pre-chilled PBS at 200 μL/well, and centrifuged at 500 g at 4° C. for 5 minutes, and the supernatant was discarded. Finally, the cells were resuspended in pre-chilled PBS at 200 μL/well. The fluorescence signal values were read using a BD FACS CANTOII flow cytometer or ACEA NovoCyte flow cytometer, and the data were processed and analyzed using FlowJo v10 software (FlowJo, LLC).
(§1) Data processing and graphical analysis were performed using GraphPad Prism 8 software. The binding curve of the antibody to the target cell and parameters, such as EC₅₀ value were obtained by four-parameter nonlinear fitting.

human CD40 [3] = molecular target: T1, human CD40; assay: cell-based or functional assay; remark: listed apart in the source
human PD-L1 [4] = molecular target: T2, human PD-L1 (human, UniProt Q9NZQ7 19-290); assay: cell-based or functional assay
human PD-L1 [5] = molecular target: T2, human PD-L1; assay: FACS, CHO-K1/hPD-L1 cells
Method: Specifically, the cells expressing PD-L1 were digested and resuspended in PBS buffer containing 2% BSA. The cells were adjusted to a cell density of 1×10⁶ cells/mL, respectively. The cells were seeded in a 96-well V-bottom plate (Corning, #3894) at 100 μL/well, and the antibody to be tested at 2×final concentration with 4-fold concentration gradient dilution was then added at 100 μL/well. The cells were incubated at 4° C. for 2 hours in the dark. After the incubation, the cells were rinsed twice by adding pre-chilled PBS containing 2% BSA at 100 μL/well, and centrifuged at 500 g at 4° C. for 5 minutes, and the supernatant was discarded. […] The cells were washed twice by adding pre-chilled PBS containing 2% BSA at 100 µL/well, and centrifuged at 500 g at 4° C. for 5 minutes, and the supernatant was discarded. Finally, the cells were resuspended in pre-chilled PBS buffer containing 2% BSA at 200 μL/well. The fluorescence signal values were read using a BD FACS CANTOII flow cytometer or ACEA NovoCyte flow cytometer, and the data were processed and analyzed using FlowJo v10 software (FlowJo, LLC).
as §1

cynomolgus monkey PD-L1 = molecular target: T3, cynomolgus monkey PD-L1 (cynomolgus monkey); assay: FACS, CHO-K1/cyPD-L1 cells
T3 construct: whole, on cells; also called cyPD-L1
Method in brief: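 Binding of antibodies to PD-L1-expressing cells (1×10⁶ cells/mL in PBS/2% BSA), tested in 4-fold dilution series. Incubation 2 h at 4° C in the dark, then washes. Fluorescence read by flow cytometry.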

human CD40 [6] = molecular target: T1, human CD40; assay: FACS, MDA-MB-231 cells
human CD40 [7] = molecular target: T1, human CD40; assay: cell-based or functional assay; remark: listed apart in the source
human CD40 [8] = molecular target: T1, human CD40; assay: FACS, Raji cells; remark: listed apart in the source
Method in brief: (§2)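 Cells carrying bound test antibody were kept 1 h at 4° C in the dark, washed in cold PBS, then stained 30 min at 4° C with Alexa Fluor 488 goat anti-human IgG (H+L) (1:1000). Fluorescence signal was read by flow cytometry.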

cynomolgus monkey CD40 = molecular target: T4, cynomolgus monkey CD40 (cynomolgus monkey); assay: FACS, CHO-K1/cyCD40 cells
T4 construct: whole, on cells; also called cyCD40
Method in brief: as §2

human CD40 [9] = molecular target: T1, human CD40; assay: FACS, CHO-K1/hCD40 cells
Method in brief: as §2

T1 sequence (P25942 21-277): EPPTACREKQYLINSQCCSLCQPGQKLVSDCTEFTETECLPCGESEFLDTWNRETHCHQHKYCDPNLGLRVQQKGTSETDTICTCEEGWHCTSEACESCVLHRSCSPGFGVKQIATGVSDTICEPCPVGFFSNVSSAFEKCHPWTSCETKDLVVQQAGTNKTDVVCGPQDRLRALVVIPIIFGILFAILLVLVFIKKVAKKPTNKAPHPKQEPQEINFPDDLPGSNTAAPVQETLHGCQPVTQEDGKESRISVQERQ
T2 sequence (Q9NZQ7 19-290): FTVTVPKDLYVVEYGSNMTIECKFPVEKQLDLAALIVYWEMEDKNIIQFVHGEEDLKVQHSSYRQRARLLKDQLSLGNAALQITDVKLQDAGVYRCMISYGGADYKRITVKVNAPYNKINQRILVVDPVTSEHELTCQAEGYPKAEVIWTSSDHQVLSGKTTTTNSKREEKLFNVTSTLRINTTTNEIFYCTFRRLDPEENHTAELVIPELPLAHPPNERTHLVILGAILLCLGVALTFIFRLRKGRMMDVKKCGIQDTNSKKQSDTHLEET

B1: PR003379 (antibody, human IgG2, kappa, V domains shown)
VH: QVQLVQSGAEVKKPGASVKVSCKASGYTFAGYYMYWVRQAPGQGLEWMGWINPDSGAPTYAQKFQGRVTMTRDTSISTAYMELSRLRSDDTAVYYCAREKIYYGSGNYYPSFDYWGQGTLVTVSS
VL: DIQLTQSPSFLSASVGDRVTITCRASQGISSYLAWYQQKPGKAPKLLIYAASTLQSGVPSRFSGSGSGTEFTLTISSLQPEDFATYYCQQLNSYPWTFGQGTKVEIKR
notes: also called clone 18C4A12-1B1
EC50, HEK293-hCD40-NFκB reporter, crosslinked (CHO-K1/hCD32B) (human CD40 [1]): 0.178 nM
EC50, HEK293-hCD40-NFκB reporter, uncrosslinked (CHO-K1) (human CD40 [1]): 0.369 nM
Fold (EC50 in the absence of crosslinking/EC50 in the presence of crosslinking) (human CD40 [1]): 2.07 fold
EC50 (human CD40 [2]): 0.0699 nM
Maximum MFI (human CD40 [2]): 3700 MFI

B2: PR006495 (antibody, human IgG1, kappa, V domains shown)
VH: B1 VH
VL: B1 VL with N92A
notes: Variant of PR003379, L: N92A; human IgG1 L234A, L235A, G237A
EC50 (human CD40 [2]): 0.356 nM
Maximum MFI (human CD40 [2]): 8870 MFI
EC50, HEK293-hCD40-NFκB reporter, crosslinked (human CD40 [3]): 0.109 nM
EC50, HEK293-hCD40-NFκB reporter, uncrosslinked (human CD40 [3]): 0.905 nM
Fold (EC50 in the absence of crosslinking/EC50 in the presence of crosslinking) (human CD40 [3]): 8.28 fold
Maximum fold, HEK293-hCD40-NFκB reporter, crosslinked (human CD40 [3]): 5.54 fold
Maximum fold, HEK293-hCD40-NFκB reporter, uncrosslinked (human CD40 [3]): 4.92 fold

B3: PR006496 (antibody, human IgG1, kappa, V domains shown)
VH: B1 VH
VL: B1 VL with N92F
notes: Variant of PR003379, L: N92F; human IgG1 L234A, L235A, G237A
EC50 (human CD40 [2]): 0.277 nM
Maximum MFI (human CD40 [2]): 9300 MFI
EC50, HEK293-hCD40-NFκB reporter, crosslinked (human CD40 [3]): 0.217 nM
EC50, HEK293-hCD40-NFκB reporter, uncrosslinked (human CD40 [3]): 0.43 nM
Fold (EC50 in the absence of crosslinking/EC50 in the presence of crosslinking) (human CD40 [3]): 1.98 fold
Maximum fold, HEK293-hCD40-NFκB reporter, crosslinked (human CD40 [3]): 5.03 fold
Maximum fold, HEK293-hCD40-NFκB reporter, uncrosslinked (human CD40 [3]): 4.43 fold

B4: PR006511 (antibody, human IgG1, kappa, V domains shown)
VH: B1 VH
VL: B1 VL with S93N
notes: Variant of PR003379, L: S93N; human IgG1 L234A, L235A, G237A
EC50 (human CD40 [2]): 0.386 nM
Maximum MFI (human CD40 [2]): 11800 MFI

B5: PR006497 (antibody, human IgG1, kappa, V domains shown)
VH: B1 VH
VL: B1 VL with N92Y
notes: Variant of PR003379, L: N92Y; human IgG1 L234A, L235A, G237A
EC50 (human CD40 [2]): 0.252 nM
Maximum MFI (human CD40 [2]): 9200 MFI
EC50, HEK293-hCD40-NFκB reporter, crosslinked (human CD40 [3]): 0.158 nM
EC50, HEK293-hCD40-NFκB reporter, uncrosslinked (human CD40 [3]): 0.479 nM
Fold (EC50 in the absence of crosslinking/EC50 in the presence of crosslinking) (human CD40 [3]): 3.03 fold
Maximum fold, HEK293-hCD40-NFκB reporter, crosslinked (human CD40 [3]): 4.77 fold
Maximum fold, HEK293-hCD40-NFκB reporter, uncrosslinked (human CD40 [3]): 4.61 fold

B6: PR000960 (antibody, human IgG1, V domains shown)
VH: QVQLVESGGGVVQPGMSLRLSCAASGFNFSNYGMYWVRQAPGKGQEWVAIIWYDGTKKHYADSVKGRFTISRDNSKNTLYLEMNSLRVEDTAVYYCAKNRAIFGVVPDASDIRGQGTMVTVSS
notes: Fully human heavy-chain-only antibody (HCAb): VH fused to human IgG1 Fc; no light chain
EC50, Jurkat-NFAT-hPD1 reporter (human PD-L1 [4]): 0.31 nM
Maximum (RLU), Jurkat-NFAT-hPD1 reporter (human PD-L1 [4]): 18400 RLU
EC50 (human PD-L1 [5]): 0.79 nM
Maximum MFI (human PD-L1 [5]): 23700 MFI

B7: PR002082 (antibody, human IgG1, V domains shown)
VH: B6 VH with N28T, N31S
notes: HCAb; PTM variant of PR000960 (N28T, N31S); human IgG1 Fc; no light chain
EC50, Jurkat-NFAT-hPD1 reporter (human PD-L1 [4]): 0.217 nM
Maximum (RLU), Jurkat-NFAT-hPD1 reporter (human PD-L1 [4]): 12100 RLU
EC50 (human PD-L1 [5]): 0.86 nM and 1.31 nM

B8: PR006245 (antibody, human IgG1, V domains shown)
VH: B6 VH with N28D, N31S, I50S, W52R, D54T, K57E
notes: HCAb; human IgG1 Fc; no light chain
EC50, Jurkat-NFAT-hPD1 reporter (human PD-L1 [4]): 0.151 nM
Maximum (RLU), Jurkat-NFAT-hPD1 reporter (human PD-L1 [4]): 13800 RLU
EC50 (human PD-L1 [5]): 0.964 nM
Maximum MFI (human PD-L1 [5]): 405000 MFI

B9: PR006248 (antibody, human IgG1, V domains shown)
VH: B6 VH with N28D, N31S, I50S, W52R, D54T, K57E, I102L, V106I, A109D
notes: as for B8
EC50, Jurkat-NFAT-hPD1 reporter (human PD-L1 [4]): 0.121 nM
Maximum (RLU), Jurkat-NFAT-hPD1 reporter (human PD-L1 [4]): 14100 RLU
EC50 (human PD-L1 [5]): 0.606 nM
Maximum MFI (human PD-L1 [5]): 404000 MFI

B10: PR005878 (antibody, human IgG1, V domains shown)
VH: B6 VH with N28T, N31S, I50S, W52R, D54T, K57E, I102L, V106I, A109D
notes: as for B8
EC50, Jurkat-NFAT-hPD1 reporter (human PD-L1 [4]): 0.166 nM
Maximum (RLU), Jurkat-NFAT-hPD1 reporter (human PD-L1 [4]): 13400 RLU
EC50 (human PD-L1 [5]): 1.08 nM
Maximum MFI (human PD-L1 [5]): 419000 MFI

B11: PR006247 (antibody, human IgG1, V domains shown)
VH: B6 VH with N28D, N31S, I50S, W52R, D54T, K57E, I102L, V106I
notes: as for B8
EC50, Jurkat-NFAT-hPD1 reporter (human PD-L1 [4]): 0.15 nM
Maximum (RLU), Jurkat-NFAT-hPD1 reporter (human PD-L1 [4]): 13400 RLU
EC50 (human PD-L1 [5]): 1.01 nM
Maximum MFI (human PD-L1 [5]): 410000 MFI

B12: PR006246 (antibody, human IgG1, V domains shown)
VH: B6 VH with N28D, N31S, I50S, W52R, D54T, K57E, V106I, A109D
notes: as for B8
EC50, Jurkat-NFAT-hPD1 reporter (human PD-L1 [4]): 0.132 nM
Maximum (RLU), Jurkat-NFAT-hPD1 reporter (human PD-L1 [4]): 13700 RLU
EC50 (human PD-L1 [5]): 0.764 nM
Maximum MFI (human PD-L1 [5]): 396000 MFI

B13: Selicrelumab (antibody, human IgG2, kappa, V domains shown)
VH: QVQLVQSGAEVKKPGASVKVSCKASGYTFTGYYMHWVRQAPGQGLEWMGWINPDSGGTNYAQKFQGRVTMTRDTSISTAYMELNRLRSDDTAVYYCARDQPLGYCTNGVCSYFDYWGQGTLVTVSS
VL: DIQMTQSPSSVSASVGDRVTITCRASQGIYSWLAWYQQKPGKAPNLLIYTASTLQSGVPSRFSGSGSGTDFTLTISSLQPEDFATYYCQQANIFPLTFGGGTKVEIKR
notes: Positive control anti-CD40 antibody; also called PR001028
Maximum MFI (cynomolgus monkey PD-L1): 94 MFI
EC50, HEK293-hCD40-NFκB reporter, crosslinked (CHO-K1/hCD32B) (human CD40 [1]): 0.0413 nM
EC50, HEK293-hCD40-NFκB reporter, uncrosslinked (CHO-K1) (human CD40 [1]): 0.163 nM
Fold (EC50 in the absence of crosslinking/EC50 in the presence of crosslinking) (human CD40 [1]): 3.94 fold
EC50 (human CD40 [6]): 0.936 nM
EC50, HEK293-hCD40-NFκB reporter, + CHO-K1 (human CD40 [7]): 0.183 nM and 0.241 nM
EC50, HEK293-hCD40-NFκB reporter, + CHO-K1/hPD-L1 (human CD40 [7]): 0.155 nM and 0.205 nM
EC50 (human CD40 [8]): 3.02 nM
Maximum MFI (human CD40 [8]): 5170 MFI
EC50 (cynomolgus monkey CD40): 4.74 nM
Maximum MFI (cynomolgus monkey CD40): 53400 MFI
EC50 (human CD40 [2]): 0.484 nM
Maximum MFI (human CD40 [2]): 2450 MFI
EC50 (human CD40 [9]): 2.58 nM
Maximum MFI (human CD40 [9]): 13900 MFI
